Consider four sequences from PMC9916836.

The data set has as its target T1, UvrY-His6 (Escherichia coli O157:H7 (EHEC; EDL933?)) (UniProt P66798).
T1 sequence: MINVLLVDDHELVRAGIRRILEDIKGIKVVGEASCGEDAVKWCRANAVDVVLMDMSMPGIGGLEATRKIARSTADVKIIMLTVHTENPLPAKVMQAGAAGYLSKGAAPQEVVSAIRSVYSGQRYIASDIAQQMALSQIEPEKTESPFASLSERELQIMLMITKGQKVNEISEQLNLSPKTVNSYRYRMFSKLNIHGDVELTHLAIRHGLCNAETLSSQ
Put plainly: EMSA. In general terms: In EMSA bound probe runs differently from free probe, usually more slowly.

Regarding “GTTATCGCAGGGAGCCACACAGCGTGTGTTGGACGCGACTCAGCTTTACCTTGGTGAGATTGGTTATTCACCACTGTTAACGGCCGAAGAAGAAGTTTATTTTGCGCGTCGCGCACTGCGTGGAGATGTCGCCTCTCGCCGCCGGATGATCGAGAGTAACTTGCGTCTGGTGGTAAAA (double strand) [rpoS coding region]”, the binding result is given as “no binding”.

Regarding “GGGTGCTACTTTACGCCTTTGCTTTAAACAAACAATCAACCGCCATCAGTATTTGCACATTTTCAGAGTTTTATATAAAAGCAATTAACTGATTTATATAGCTTATTTGACATGCATCGCAGAATTTTCTCTGCTATTTCGCATAAAGACTATCGGCAATGTCTCACAAAGCGTATGGCTTTTACTTACAACGCTCACGCCGAAAAATCCGCCTTTTATTATGGTTCAGGTATAATCGCCGCAAAGCTTTGACTGACGGAGACGACCGCTT (double strand) [PcsrC]”, the binding entry is listed as “binds”.

As for “CATTAGCCATTGGAAACTCACGTAATCATTAATTATGAATATTCCATTAAATAGTACTGTACAACAGCTTCCTTTCTACTCTATTCTTAGACGATGTAAGTTCACCATATTTTTTCTCATTGTTCAACCACCAGGATGAATAAAATTTAAAAATGTTATCCTCATATAAAATAAAACTTCTCAATGGTGCGATGCG (double strand) [PLEE4]”, the binding entry is on record as “no binding”.

Take “AGATTCATCTGCAGGCTCTGAAGTAAGTATACGTGTGAATATTATTGCTTGAAAAAGCGTATTGGATAATATATACAGTATATGTACTTTATGTACATTGCAACTATTTAAATAATATAATAGTTGCCTATGGGATAATTTGGTTATTTATAACCAGGTAAATGTCTAAATTAGACAAAAGGAGAAAGATCAATGGAAGCAGCAAATTTAAGTCCTTCTGGTGCAGTAATG (double strand) [PLEE2/3]”: the binding result is reported as “no binding”.
